Source: a protein production outcome set (Wang et al. 2014)

Assay: label from the status in PepcDB records

Sequence	protein production
SFYLSELEHSLRVPPHLLNLPLEDAIKSVLQNVFLDKVLADLGLCVSIYDIKSVEGGFVLPGDGAATYKVGLRIVVFRPFVGEVIAAKFKESDANGLRLTLGFFDDIYVPAPLMPKPNRCEPDPYNRKQMIWVWEYGEPKEDYIVDDACQIKFRVESISYPSVPTERAEDAKPFAPMVVTGNMDDDGLGPVSWWDSYEQVDQEE	failed
SGGDVNEAYRVETDTDTFFLLVQRGRKESFYAAEIAGLNEFERAGITAPRVIASGEVNGDVYLVMTYLEEGASGSQRQLGQLVAQLHSQQQEEGKFGFSLPYEGGDISFDNHWQDDWRTIFVDKRLDHLKEELLNRGLWDANDIKVYDKVRSQIVEELEKHQSKPSLLHGDLWGGNYMFLKDGRPALFDPAPLYGDREFDIGITTVFGGFTSEFYDAYNKHYPLAKGASYRLEFYRLYLLMV	failed
SGRLFVRNLSYTSSEEDLEKLFSAYGPLSELHYPIDSLTKKPKGFAFVTFMFPEHAVKAYAEVDGQVFQGRMLHVLPSTIKKEASQ	not failed
SGRPFVEMYSEIPEIIHMTEGRELVIPCRVTSPNITVTLKKFPLDTLIPDGKRIIWDSRKGFIISNATYKEIGLLTCEATVNGHLYKTNYLTHRQTNTIIDVQISTPRPVKLLRGHTLVLNCTATTPLNTRVQMTWSYPDEKNKRASVRRRIDQSNSHANIFYSVLTIDKMQNKDKGLYTCRVRSGPSFKSVNTSVHIYDKAFITVKHR	not failed
SKHAKSFKDDMYLRTEHVVWQKEMLTLARLAAAVDMAAADSKDVANSHIFDAMVNQKIKLQNPEVLKKWLGEQTAFDGKKVLAAYESPESQARADKMQELTETFQIDGTPTVIVGGKYKVEFADWESGMNTIDLLADKVREEQKAAQ	failed
SKQPTSAENSVAKKEDKVPVKKQKTRTVFSSTQLCVLNDRFQRQKYLSLQQMQELSNILNLSYKQVKTWFQNQRMKSKRWQKNN	not failed
SLATCIGEKIEDFKVGNLLGKGSFAGVYRAESIHTGLEVAIKMIDKKAMYKAGMVQRVQNEVKIHCQLKHPSILELYNYFEDSNYVYLVLEMCHNGEMNRYLKNRVKPFSENEARHFMHQIITGMLYLHSHGILHRDLTLSNLLLTRNMNIKIADFGLATQLKMPHEKHYTLCGTPNYISPEIATRSAHGLESDVWSLGCMFYTLLIGRPPFDTDTVKNTLNKVVLADYEMPSFLSIEAKDLIHQLLRRNPADRLSLSSVLDHPFMSRNSSTKSKDEG	not failed
SLDDHTRDPTVKAPDGNPSGWRTDGQWEHETLRRAVVHGVRLYNSGEFHESHDCFEDEWYNYGRGNTESKFLHGMVQVAAGAYKHFDFEDDDGMRSLFRTSLQYFRGVPNDYYGVDLLDVRTTVTNALSDPSALHGWQIRLDGEYPTCRPEDIEFAESLEH	not failed
SLREMLGCCKVYISEARNKTALEAIERALKPFPPAAIVNKFEDAAYGRVGYTVVSSLANGSSSSLKNAVFAMVKTALDTINLELHCGSHPRLGVVDHICFHPLSQTSIEQVSSVANSLAMDIGSILRVPTYLYGAAEKEQCTLDSIRRKLGYFKANREGHEWAGGFDLEMVPLKPDAGPQEVSKAKGVVAVGACGWVSNYNVPVMSNDLKAVRRIARKTSERGGGLASVQTMALVHGEGVIEVACNLLNPSQVGGDEVQGLIERLGREEGLLVGKGYYTDYTPDQIVERYMDLLNNS	failed
SLSEAGYPRKVMQHAEELHERILSFDSRITVPLDFGTTGNEVDKDGPGQLDLVKAGRGRLSGAALAIFGWPEMWNGPNAPHKPTPGFVDEARHQQEIRYKILTGMVRDFPNQVGIAYSPEDFRRLAMEGKFAIVMSMLNAYPLGDDLSQLDKWAARGVRMFGFSYVGNNDWADSSRPLPFFNDSPDALGGLSPLGKQAVERLNDLGVIIDVSQMSTKALEQVAALSRAPIVASHSAPRALVDIKRNLSDHEMQLIKDSGGVIQVVGFPAYLRPLSKPTLDKLDALRARFDLPPLEGLDYALMPGDPIITIWPEQRFGEYASALYGILEEEPKAGLKELVDAIDYTVKKVGIDHVGISSDFNDGGGVDGWKDVSEIRNVTAELITRGYSDADIAKLWGGNFLRAWGEVQKRAKPTATP	not failed
SLYDPAEKYFNCTDIQRAFFEAGIKLGAIFHQYTGIPVNSENASMAEEFIERSTMIQPFVENVRISINNVKRSSGTYSYSSLNEKMLHAEVLINYNGKKVLGVLNYDEGLDYPVMYAKEVL	not failed
SMSEHSAIVTWKRKDSEAFTDNQYSRAHTWEFDGGSKILASASPHVVPVPLSVEANVDPEEAFVAALSSCHMLVFLSIAAKQRYLVESYTDNAVGILGKNSKGKTSVTKVVLRPQVVFSGTSKPTLQQLEKMHHLAHENCFIANSVETEVVTEII	not failed
SNIRLIATDMDGTLTQQGRFSAALLQTLENLKAAGLPILIVTGRSAGWVSGISSLMPIAGAIGENGGLFYPADSEHPLLLTPIADLTGHRQNLALVFQKLKQKFPQIQESGDNRFRITDWTFDVAGLTLAELQLIGNLCQDMGWGFTYSNVQCHIKPQGQEKAIALLQVLQKYFPDYSPTQVVTVGDSPNDESLFNQRYFPLSVGVANVLKYAHQLQHQPSYVTTTAEGEGFCELCSYIL	failed
SNPNDLPDFPEHEYAATQQVGEGVINGDLYLTSASGAIQKGTNTKVALEPATSYMKAYYAKFGNLDAAKRDPDVQPPVLDPRRATYVREATTDQNGRFDFDHIPNGTYYISSELTWSAQSDGKTITEGGTVTKLVTVSGSQPQKVLLTR	not failed
SNRQVQLMARQQRLKAIEDRLEKFYIPLIKAFSSYVYTAQTEDEIETIITCRRYLAGNNLLRVLPMHFKFKADKIAGSANWTFYAKEDFEQWKEALDVLWEEFLEVLKEYYTLSGTEISLPEKPDWLIGYK	not failed
SNTPSAEADWSPGLELHPDYKTWGPEQVCSFLRRGGFEEPVLLKNIRENEITGALLPCLDESRFENLGVSSLGERKKLLSYIQRLVQIHVDTMKVI	not failed

Sequence	protein production
SPSKVQELSVYEINELDRHSPKILKNAFSLMFGLGDLVPFTNKLYTGDLKKRVGITAGLCVVIEHVPEKKGERFEATYSFYFGDYGHLSVQGPYLTYEDSFLAITGGAGIFEGAYGQVKLQQLVYPTKLFYTFYLKGLANDLPLELTGTPVPPSKDIEPAPEAKALEPSGVISNYTN	failed
SQGDCSYSRTALYDLLGVPSTATQAQIKAAYYRQCFLYHPDRNSGSAEAAERFTRISQAYVVLGSATLRRKYDRGLLSDEDLRGPG	not failed
SQLISADGKVFGSYAHSGDNRIYTRYNEISPDLIKALIATEDVRFRKHSGIDSKGLFRAVVKRGILNQKSGGGGSTITQQLAKLLYSPRTETKLGRLFQKPIEWVIAVKLERFYTKEEIITMYLNYFDFLYNAVGIKSAAYTYFGKQPADLKIEEAAVLVGMCKNPAYYNPVLHG	failed
SQYKNISEKIVHIIQQEFDTDLTLESIAGRLHYNPNYLSSIFRKEMKISFSEYLSSYRHHIAKNWLTETTMSVKEISEKLKYKNPQNFIRSFKKLEGITPGKYRELKNHS	not failed
SRFYEQHADCLAEQYTSLKFEDVHASWRAFWPQARDRVLDVGAGSGRDAKWMAEHGCEVIAIEPAQALLRFGKSYCGDSVTWLEDGLPKLEKTINLGFRFDLILVSAVWMHLAPTHRERAFRKLANLLAPNGRLVISLRHGDFSDGRKAYPVSVEELEKFAKNRALMVRNVS	failed
SRPLGEVYLDSSKPAVYNYPEGAAYEFNAAAAANAQVYGQTGLPYGPGSEAAAFGSNGLGGFPPLNSVSPSPLMLLHPPPQLSPFLQPHGQQVPYYLENEPSGYTVREAGPPAFYRPNSDNRRQG	not failed
SSPIRLSTSNLPMTLTTNTSSGAPNKAFNTSSVNSGNSFSRTTTSSTTTTTERIEIRAEGDGEVDTDSIRKRITERLRRSVSKTISNLAGTPVTNTEEGSRYSRSVSRSVYDDEKSSKRSYSTGEEDIDEEDELEEDQFRSFNVTRKSATPAEISCRQLKAPREFGGWLGAFLFLLLLPTAVYYLTWSCTARNACQFKHLNLGILLDVNYLTRQVFQPRVVGAFAAYQVVVFLLVALLPGRRVHLTRETYKFNCLAVSLTLLIASGVAEYLKYPVVTFVLRHYLRFCIFGLVGAFVAAAW	failed
SSPPSGCPMHEGKMKGCPVNTEPSGPTCEKKTYSVPAHQERAYEYVECPIRGTAAENKENLDPSNLMPPPNQTPAPDQPFALSTVREESSIPRADSEKKWVYPSEQMFWNAMLKKGWKWKDEDISQKDMYNIIRIHNQNNEQAWKEILKWEALHAAECPCGPSLIRFGGKAKEYSPRARIRSWMGYELPFDRHDWIINRCGTEVRYVIDYYDGGEVNKDYQFTILDVRPALDSLSAVWDRMKVAWWRWTS	failed
SSQPVISAQEQETQIVLYGKLVEARQKHANKMDVPPAILATNKILVDMAKMRPTTVENVKRIDGVSEGKAAMLAPLWEVIKHFCQTNSVQTDLFSSTKPQ	not failed
SSRRRRIVAAARDYVLAHRSRPVGVPELCEQLHVSRRTLQYCFQDVLGMAPATYLRALRLNGVRRDLRGRAADSVQDVAAAWGFWHLSQFATDYRRMFGARPSETLRGALA	failed
SSSKGISNALKDLVEDFERELGRMLSPFELEDLQKTVSDDKTDPDLVRSALREAVFNGKTNWNYIQAILRNWRHEGI	failed
STGNAGEWCLMESDPGVFTELIKGFGCRGAQVEEIWSLEPENFEKLKPVHGLIFLFKWQPGEEPAGSVVQDSRLDTIFFAKQVINNACATQAIVSVLLNCTHQDVHLGETLSEFKEFSQSFDAAMKGLALSNSDVIRQVHNSFARQQMFEFDTKTSAKEEDAFHFVSYVPVNGRLYELDGLREGPIDLGACNQDDWISAVRPVIEKRIQKYSEGEIRFNLMAIVSDRKMIYEQKIAELQRQLAEEPMDTDQGNSMLSAIQSEVAKNQMLIEEEVQKLKRYKIENIRRKHNYLPFIMELLKTLAEHQQLIPLVEKAKEKQNAKKAQETK	not failed
STHKLIRQDNSELIYYLDKQAEHNKTLLVLMQGSDCNSIKNNTFIQETFGRWLPSSDVLMVEKYGITAQLTYSDDNGEREDCPKNYKLHDNPNQRLADYLAVLDKLSPNYTNIVLLGGSEGATMVHLVVAERHDISAAIALNGGGRFFLDDVLYNIRNTTPKEHVEEAINSFQQLANAIITNQIGDEQFVSEHSKLWWQQYLAIDLLEVIKRNTQTPVLIVQTLDDINVDVAAFHQLSQEITQPNVTFIKYDKLNHGFYNQQGERLTGKVVQDIQQWYAQYNK	not failed
STITYYRTDLFKQAGLSMPERPTWTQLGEFAAKLHQPDKGVYGMCLRGKAGWGENIALLSTMANAFGARWFDEHWKPELNSPEWANAANFYVNTLKNYGPPGVSSNGFNETLALFNSGKCALWVDASVAGSFTTDKEQSKVVDSVGFAPAPVEVTDKGSSWLYAWSLAIPATSRHKDAAKAFITWATSKAYIQLVAEKDGITNVPPGTRTSTYSEA	failed
STMTVIKDYYALKENEICVSQSEVVQVLAVNQQNMCLVYQPASDHSPAAKGWVPGSILAPF	not failed
STQYMELNQRDEKSPFRNANLRKAISYSIDRKALVESILGDGSIEPNGLVPADMAKDPSGGKDFAKEAGSQIEYDTKKAKEYWEKAKKELGISTLTMDILSSDADSSKKTVEFVQGSIQDALDGVKVTVSPVPFSVRLDRSNKGDFDAVIGGWSADYADPSSFLDLFASDNSYNRGRYNNAEFDKFVKAASSADATDPEKRWDDMLNAEKTIMGDMGVVPLFQKS	not failed
